In patent US20040001822A1, “Y1-isolated molecules comprising epitopes containing sulfated moieties, antibodies to such epitopes, and uses thereof” (priority 2000, published 2004):
Starred links: 1 amine or outer side, 2 acyl side, 3 side chain; linkers in the order of their positions; H or OH if unused. No end group written: not given here. SO3H = sulfated tyrosine (Y*), O=S(=O)(O)[*:2]

Columns and labels:
Conditions in all cases: remark: other sources report otherwise
Y1 scFv [1] = experiment: competition FACS, peptide 2.5 µM preincubated with Y1-scFv, washed platelets
Y1 scFv [2] = experiment: competition ELISA, peptide 2.5 µM preincubated with Y1 (0.25 µg/well), glycocalicin-coated plate
Y1 scFv [3] = experiment: competition ELISA, peptide 0.5 µM preincubated with Y1 (0.25 µg/well), glycocalicin-coated plate
Y1 scFv [4] = experiment: competition ELISA, peptide 25 µM preincubated with Y1 (0.25 µg/well), glycocalicin-coated plate
Y1 scFv [5] = experiment: competition ELISA, peptide 200 µM preincubated with Y1 (0.25 µg/well), glycocalicin-coated plate
Y1 scFv [6] = experiment: competition FACS, peptide 200 µM preincubated with Y1-scFv, washed platelets

Y1 scFv, sequence (chain, as listed by the source): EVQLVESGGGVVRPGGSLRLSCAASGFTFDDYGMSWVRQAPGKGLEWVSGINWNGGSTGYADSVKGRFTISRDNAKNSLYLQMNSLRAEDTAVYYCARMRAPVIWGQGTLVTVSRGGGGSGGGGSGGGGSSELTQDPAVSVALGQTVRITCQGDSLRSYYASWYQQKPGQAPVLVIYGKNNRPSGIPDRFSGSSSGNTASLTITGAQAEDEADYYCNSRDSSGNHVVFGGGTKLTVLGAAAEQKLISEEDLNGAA

With GDEGDTDLY(SO3H)DY(SO3H)Y(SO3H)PEEDTE [P-1-S peptide (residues 268-285 of GPIbα, sulfated)] the Residual Binding of Y1 (% of baseline) (Geo Mean) (Y1 scFv [1]) was 41%, the Residual Binding of Y1 (% of baseline) (Y1 scFv [2]) was 62% and the Residual Binding of Y1 (% of baseline) (Y1 scFv [3]) was 89%. It also gave a Residual Binding of Y1 (% of baseline) (Y1 scFv [4]) of 25%, a Residual Binding of Y1 (% of baseline) (Y1 scFv [5]) of 0% and a Residual Binding of Y1 (% of baseline) (Geo Mean) (Y1 scFv [6]) of 5%.
